Experiments:
[1] = system: stratum corneum barrier; assay type: in vivo, ICR mice
[2] = system: P. acnes; experiment: Effect of desipramine on P. acnes-induced inflammation in vivo (ear thickness); set-up: species or system ICR mice; conditions: 20 mg/kg i.p. 30 min before challenge; 24 hr
Description: (A) Amount of soluble ASMase in mouse ear increased 24 hr after bacteria challenge. Ears of ICR mice were intradermally injected with of P. acnes in PBS (1×10^7 CFU/20 μl; left ear) or PBS (20 μl; right ear), and excised after 24 hr. Ear tissue was obtained with a 8 mm biopsy and homogenized in PBS. The supernatant (1 ug of total protein) was subjected to Western blotting. ASMase (upper panels) and GAPDH (lower panels) were detected with goat anti-ASMase IgG followed by anti-GAPDH IgG (left panels). Normal goat or mouse IgG was used as a negative control for the detection (right panels). (B) P. acnes challenge into mouse ear attracted CD11b+ macrophages which highly expressed ASMase. Frozen sections of mouse ear obtained 24 after bacteria challenge were stained with biotinylated anti-mouse CD11b IgG, a conventional macrophage marker, and TRITC-streptavidin conjugate, followed by Goat anti-ASMase IgG and anti-goat IgG-TRITC conjugate. The nuclei were stained with DAPI (blue). Bar=200 μm. (C) Transmission electron microscopy (10,000× magnification) was used to visualize colonized P. acnes and ruptured cell membrane in mouse ears injected with P. acnes or PBS. PA, P. acnes; CM, cell membrane; NC, nucleus. Bar=1 μm. (D) Systemic pre-treatment of ICR mice with selective ASMase inhibitor relieved P. acnes-induced inflammation. […]

[3] = system: HaCaT cells co-cultured with P. acnes; experiment: P. acnes-mediated cell death: neutralization assay / ASMase inhibitor, HaCaT; conditions: desipramine 10 μM, 14 hr; 43.4% with PBS vehicle
[4] = system: sialidase; experiment: Immunogenicity of sialidase vaccines (Western blot, antigen microarray); conditions: recombinant protein with Freund (in)complete adjuvants; three weeks after immunization
[5] = system: P. acnes; experiment: P. acnes-induced ear thickness/redness in immunized mice (subcutaneous ear challenge)
[6] = system: human SZ95 sebocytes; experiment: Susceptibility of sialidase-treated sebocytes to P. acnes (cell death by trypan blue, adherence by CFU); conditions: pre-treatment 10 μg/ml for 2 h; GFP no effect
[7] = system: sialic acids on the surface of human SZ95 sebocytes; experiment: Sialidase enzyme activity: removal of surface sialic acids from sebocytes (MAA lectin I / streptavidin-FITC flow cytometry); conditions: compared among three cloned P. acnes sialidases

Molecule: CCCCCCCCCCCCCCO[C@@H]1O[C@H](CO)[C@@H](O[C@H]2O[C@H](CO)[C@@H](O)[C@H](O)[C@H]2O)[C@H](O)[C@H]1O [TDM, tetradecyl-β-D-maltoside]
- effect on stratum corneum barrier ([1]; 0.125% in sterile water, 15 min): slightly disrupts
- effect on epicutaneous immunization of E. coli based-tetanus toxin C fragment vaccine ([1]; mouse, in vivo): greatly enhances

Molecule: CNCCCN1c2ccccc2CCc2ccccc21 [desipramine]
- P. acnes-induced ear swelling [2]: significantly relieved
- P. acnes-induced cell death, reduced by (HaCaT) [3]: 21.9%

B1: sialidase: recombinant P. acnes cell wall-anchored sialidase (gi|50843035) 6×NH fusion protein; enzyme and, with Freund adjuvants, vaccine (protein)
chain: MTLTTKLSALAIAGIMAVIGAPMVTQSAMASGRAPAPDAATTQPKLVTGDITSTDQSGTHLFFGKNIVRNAKGAIMKVDRTWPAAVPAPLPDVRADSSTRMLLGPVVDLAVNEHPAGVFYRIPALATASNGDLLASYDLRPGSAADAPNPNSIVQRRSRDNGRTRGPQTVIHAGTLGRRKVGYSDPSYLVDPATGHILNFHVKSYDRGFATSEVGTDPDDRHVLHAEVSTSTDNGHTWTYRDITREITPDPTTRTRFVASGQGIALLHGPHAGGLIAQMTVRNSVGQQAQSIYSDDHGITWHAGNPVGRMMDENKVVELSDGTLMLNSRDAARSGRRKVAYSHDGGLTWGPVKLVDDLIDPTNNAQIIRAYPNARAGSAKARILLFTNARNATERVNGTLSVSCDDGRTWVSHQTYMPGEVGYTTAAVQSDGALGVLWERDGIRYSTIPMGWLNSVCPVAPSGRPTSGEPTSGTSLPLTATPSGSLHGGASSRPTSLPHTGD
modifications: left off: small tags and cut ends
- anti-sialidase antibody in serum (Western blot) [4]: strong band
- elevation of ear thickness, reduced by ([5]; recombinant sialidase with Freund (in)complete adjuvants vs GFP-immunized, P. acnes 10^7 CFU s.c.): more than 50%
- recovery of ear redness, days after P. acnes challenge ([5]; sialidase-immunized, GFP-immunized 7 days): 3 days
- adherence of P. acnes into sebocytes [6]: considerably increased
- enzyme activity in removing the sialic acids from the surface of human SZ95 sebocytes [7]: strongest enzyme activity
